Columns and labels:
porcine IL-1β = biological target: T1, porcine IL-1β (porcine, UniProt P26889 115-267); experiment: BIAcore, antibody captured on anti-IgG CM5 chip, IL-1β flowed
T1 sequence (looked up): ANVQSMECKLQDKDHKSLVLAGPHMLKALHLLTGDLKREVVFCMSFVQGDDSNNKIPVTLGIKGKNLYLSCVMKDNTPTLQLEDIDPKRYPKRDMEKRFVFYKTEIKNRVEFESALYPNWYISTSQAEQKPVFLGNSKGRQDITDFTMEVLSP
Method: (§1) Affinities and specificities of both Hu007 and Mu007 were determined using BlAcore measurements. BIAcore™ is an automated biosensor system that measures molecular interactions. (Karlsson, et al. (1991) J. Immunol. Methods 145: 229-240). In these experiments antibody was immobilized at low density on a BIAcore™ chip. Ethyl-dimethylaminopropyl-carbodiimide (EDC) was used to couple reactive amino groups to purified goat anti-human IgG or goat anti-rabbit IgG to a flow cell of a carboxy-methyl (CM5) BIAcore™ sensor chip. Goat IgG was diluted in sodium acetate buffer, pH 4.0, and immobilized on a flow cell of a CM5 chip using EDC to yield 1000 response units. Unreacted sites were blocked with ehanolamine. A flow rate of 60 μL/min was used. Multiple binding/elution cycles were performed by injection a 100 μL solution of 15 μg/mL Mu007 or Hu007 followed by human IL-1β, mouse IL-1β, rat IL-1β, cynomolgus monkey IL-1β, porcine IL-1β, human IL-1 receptor antagonist, and human IL-1α at decreasing concentrations for each cycle (e.g., 1500, 750, 375, 188, 94, 47, 23.5, 12, and 0 picomolar). Elution was performed with glycine-HCl, pH 1.5. BIAevaluation™ was used to analyze the kinetic data. Table 2 depicts the affinities of Hu007 and Mu007 for human and cynomolgus IL-1β. […] Cynomolgus and porcine IL-1β had 100% binding to Hu007 relative to human IL-1β.

human IL-1β [1] = biological target: T2, human IL-1β (human, UniProt P01584 117-269); experiment: competition ELISA on coated human IL-1β against biotinylated Mu007, average
T2 construct: mature; also called mature human IL-1β; Interleukin-1β
Method: Wells of 96-well ELISA plates (Nunc-lmmuno plate, Cat # 439454, NalgeNunc) were coated with 100 μL of 0.5. μg/mL of human IL-1β in 0.2M sodium carbonate-bicarbonate buffer (pH 9.4) overnight at 4° C., washed with Wash Buffer, blocked with Superblock blocking buffer for 30 min at 37° C., and washed again with Wash Buffer. A mixture of biotinylated Mu007 (0.16 μg/mL final concentration) and competitor antibody (Mu007, Hu007, or Hu007 analogs starting at 100 μg/mL final concentration and serial 3-fold dilutions) in ELISA Buffer were added in triplicate in a final volume of 100 μL per well. As a no-competitor control, 100 μL of 0.16 μg/mL biotinylated Mu007 was used. As a background control, 100 gLL of ELISA Buffer was used. ELISA plates were incubated at 37° C. for 2 hr. After washing the wells with Washing Buffer, 100 μL of 1 μg/mL HRP-conjugated streptavidin (Jackson ImmunoResearch) was added to each well. ELISA plates were incubated at room temperature for 30 min and washed with Washing Buffer. For color development, 100 μL/well of ABTS substrate was added. Color development was stopped by adding 100 μL/well of 2% oxalic acid. Absorbance was read at 415 nm.
Mu007, Hu007 and Hu007 analogs competed with biotinylated Mu007 in a concentration-dependent manner. […]

human IL-1β [2] = biological target: T2, human IL-1β; experiment: BIAcore, antibody captured on protein A CM5 chip, human IL-1β flowed
Method: Affinities and specificities of several Hu007 analogs were determined using BIAcore measurements. BIAcore™ is an automated biosensor system that measures molecular interactions. (Karlsson, et al. (1991) J. Immunol. Methods 145: 229-240). In these experiments antibody was immobilized at low density on a BIAcore™ chip. Ethyl-dimethylaminopropyl-carbodiimide (EDC) was used to couple reactive amino groups to protein A to a flow cell of a carboxy-methyl (CM5) BIAcore™ sensor chip. Protein A was diluted in sodium acetate buffer, pH 4.5, and immobilized on a flow cell of a CM5 chip using EDC to yield approximately 1000 response units. Unreacted sites were blocked with ethanolamine. A flow rate of 60 μl/min was used. Multiple binding/elution cycles were performed by injection of 10 μl of a 5 μg/mL Hu007 solution, and heavy chain CDR2 analogs N55D, N55S, N55Q, G56A, and G56V, followed by human IL-1β at decreasing concentrations for each cycle (e.g. 1500, 750, 375, 188, and […]). Elution was performed with glycine-HCl, pH 1.5. BIAevaluation™ was used to analyze the kinetic data. Table 5 depicts the affinities of Hu007 and the various Hu007 analogs for human IL-1β.

rat IL-1β = biological target: T3, rat IL-1β (rat, UniProt Q63264 117-268); experiment: BIAcore, antibody captured on anti-IgG chip, ligand flowed
T3 sequence (looked up): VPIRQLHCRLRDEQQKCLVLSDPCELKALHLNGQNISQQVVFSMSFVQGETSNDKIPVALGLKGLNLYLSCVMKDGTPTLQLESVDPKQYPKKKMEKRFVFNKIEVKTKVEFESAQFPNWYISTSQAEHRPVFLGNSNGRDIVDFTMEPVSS
Method: as §1

human IL-1α = biological target: T4, human IL-1α (human, UniProt P01583 113-271); experiment: as above
T4 sequence (looked up): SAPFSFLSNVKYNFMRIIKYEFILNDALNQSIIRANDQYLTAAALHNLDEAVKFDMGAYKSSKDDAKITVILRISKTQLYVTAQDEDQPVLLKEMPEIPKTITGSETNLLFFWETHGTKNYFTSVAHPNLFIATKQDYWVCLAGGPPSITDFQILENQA
Method: as §1

mouse IL-1β = biological target: T5, mouse IL-1β (mouse, UniProt P10749 118-269); experiment: as above
T5 sequence (looked up): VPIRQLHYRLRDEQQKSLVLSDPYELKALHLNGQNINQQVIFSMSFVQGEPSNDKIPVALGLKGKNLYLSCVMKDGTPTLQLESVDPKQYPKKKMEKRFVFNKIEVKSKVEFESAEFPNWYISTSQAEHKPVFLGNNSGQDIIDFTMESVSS
Method: as §1

[3] = biological target: T6, human IL-1 receptor antagonist (human, UniProt P18510 26-177); experiment: as above
T6 construct: also called IL-1ra
T6 sequence (P18510 26-177 limits assumed): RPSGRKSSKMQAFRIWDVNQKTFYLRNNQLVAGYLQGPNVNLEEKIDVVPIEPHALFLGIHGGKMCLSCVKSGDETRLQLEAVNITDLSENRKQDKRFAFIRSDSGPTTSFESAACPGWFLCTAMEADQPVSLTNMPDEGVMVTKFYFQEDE
Method: as §1

binding relative to human IL-1β (porcine IL-1β): 100%
Hu007/Mu007 × 100 (IC50 ratio, relative binding against Mu007) (human IL-1β [1]): 89%
Kd (human IL-1β [2]): 0.0105 nM
binding result (rat IL-1β): no binding
binding result (human IL-1α): no binding
binding result (mouse IL-1β): no binding
binding result [3]: no binding
B1: humanized antibody Hu007 (antibody, human IgG1, kappa, V domains shown)
VH: QVQLVQSGAEVKKPGASVKVSCKVSGYTFSRYWIEWVRQAPGKGLEWIGEILPGNGNINYNEKFKGKATITADTSTDTAYMELSSLRSEDTAVYYCSTIYYDYDQGFTYWGQGTLVTVSS
VL: DIQMTQSPSSLSASVGDRVTITCKASQDIDRYLSWFQQKPGKAPKSLIYRVKRLVDGVPSRFSGSASGTDYTLTISSLQPEDFATYYCLQYDEFPYTFGQGTKLEIKR
notes: Human IgG1 kappa; also called WT; Hu007 WT

Reference: patent US20050070692A1 (published 2005)
